These results are taken from US20230391828A1 (TECHNISCHE UNIVERSIT T DRESDEN, published 2023).

Bridge positions count the residues as written; N and C are the ends. Square brackets hold non-standard residues; d marks the D form. R8 = C=CCCCCCC[C@@](C)(N)C(=O)O; S5 = C=CCCC[C@](C)(N)C(=O)O; Pra = C#CC[C@H](N)C(=O)O

One assay deals with T1, RBX1 (human (HeLa K cells), UniProt P62877 2-108).
T1 construct: Detected by western blot after pull-down from HeLa K cell extract
Briefly: pull-down from HeLa K cell extract with G3-6Pra on azide magnetic beads, western blot. (Immunoblotting shows a protein as a band on a membrane.)

A further assay has as its target T2, Cullin 1 (human (HeLa K cells), UniProt Q13616 1-776).
T2 construct: Detected by western blot after pull-down from HeLa K cell extract; also called Cullin 1, subunit of E3 ubiquitin ligases related to the APC/C
Described as above.

T2 sequence (Q13616 whole entry): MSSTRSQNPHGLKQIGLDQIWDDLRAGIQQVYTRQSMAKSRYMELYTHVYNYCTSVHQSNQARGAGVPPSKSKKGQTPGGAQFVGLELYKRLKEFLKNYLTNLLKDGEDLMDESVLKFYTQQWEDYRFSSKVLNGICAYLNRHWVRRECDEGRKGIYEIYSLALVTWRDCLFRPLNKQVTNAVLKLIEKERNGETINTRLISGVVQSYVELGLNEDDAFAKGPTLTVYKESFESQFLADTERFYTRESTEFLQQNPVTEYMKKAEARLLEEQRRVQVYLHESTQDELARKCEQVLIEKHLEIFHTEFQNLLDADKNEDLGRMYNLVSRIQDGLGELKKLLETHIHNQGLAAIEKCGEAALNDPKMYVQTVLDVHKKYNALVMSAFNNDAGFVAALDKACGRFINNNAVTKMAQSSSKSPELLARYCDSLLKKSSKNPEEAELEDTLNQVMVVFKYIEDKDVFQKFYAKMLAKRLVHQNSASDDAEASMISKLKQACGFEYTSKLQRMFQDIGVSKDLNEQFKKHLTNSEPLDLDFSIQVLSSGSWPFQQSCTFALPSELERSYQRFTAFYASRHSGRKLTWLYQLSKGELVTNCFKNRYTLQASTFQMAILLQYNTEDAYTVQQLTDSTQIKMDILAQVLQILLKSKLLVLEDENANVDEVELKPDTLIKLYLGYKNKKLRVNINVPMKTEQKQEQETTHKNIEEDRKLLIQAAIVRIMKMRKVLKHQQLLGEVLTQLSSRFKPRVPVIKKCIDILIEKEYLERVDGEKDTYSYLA
T1 sequence (P62877 2-108 limits assumed): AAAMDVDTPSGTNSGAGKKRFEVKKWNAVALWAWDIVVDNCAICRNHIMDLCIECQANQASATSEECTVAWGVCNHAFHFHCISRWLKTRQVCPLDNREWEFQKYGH
Experimental for Cullin 1: (§1) As a control, G3-N4Pra negative control molecule was used. Western blot analysis was performed and indicated proteins were detected using near-infrared fluorescence imaging. GAPDH serves as a control for unspecific binding.
(§2) In mean time, inhibitor molecules containing Propargyl (Pra) chemical group were covalently attached to the azide agarose or azide magnetic resin (Jena Bioscience) by Cu(I)-catalysed azide-alkyne cycloaddition reaction. […] The reaction was catalysed by 1 mM CuSO₄, 0.1 mM TBTA (Sigma-Aldrich) and 1 mM Sodium ascorbate and was performed on the rotating wheel for 30 min at room temperature in the volume of 1 ml. Subsequently, the resin was washed 5 times with the extraction buffer. The inhibitor-agarose resin was added to 1 mg of HeLa K cell extract and the inhibitor-magnetic resin was added to 0.5 mg of HeLa K cell extract followed by incubation at 4° C. for 2 h. Followed by washing the resin 5 times with the extraction buffer. Pull-down proteins were eluted by boiling for 15 min with 1×LDS sample buffer supplemented with 100 mM DTT (agarose resin) or by incubation with 1×LDS sample buffer for 10 min at room temperature followed by taking supernatant that was supplemented with 100 mM DTT and boiling it for 10 min. Samples were subjected to SDS PAGE and Western blot analysis.
Experimental for RBX1: as §1, §2

B1: G3-6Pra, Ac-cyclo(4,11)-EWPraZIKEIQRXRRA-NH2 (peptide)
peptide: Ac-EW[Pra][R8]IKEIQR[S5]RRA-NH2
modifications: staple 4-11; not fully specified (residue 3); printed as Ac-cyclo(4,11)-EWWZIKEIQRXRRA-NH2
notes: In the pull-down it was covalently attached to azide magnetic beads through Pra; also called ID; NO; 37
As for B1, the binding result with RBX1 and in the assay with Cullin 1 was “no binding” each time.
